No end group written: not given here.
T1: His-tagged P3028 (human, also: His-tag, terminus and sequence not given here)
T1 construct: in solution at 0.5 ug/mL over the peptide cards; found with anti-His-tag antibody and rabbit anti-mouse peroxidase (rampo); also called PGE73; not shown: His-tag
T1 peptide: VFDEFKPLVEEPQNLIK


Biological target: T1, His-tagged P3028
Assay: PEPSCAN chip ELISA, His-P3028 in solution;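 note: score is the raw OD at 405 nm from peroxidase colour with ABTS, imaged by CCD camera before and after staining, with wells showing air bubbles set to zero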

First: KQLDTFFVKLSLFTER [SEQ ID NO 440]
Second: KKLLTFFVKLSLFTER [SEQ ID NO 491]
The “RAMPO Score” value of the first is higher: 350 rampo score for the first, 303 rampo score for the second.

First: KKLDIFFVKLSLFTER [SEQ ID NO 501]
Second: KKLNTFFVKLSLFTER [SEQ ID NO 498]
The “RAMPO Score” value of the first is lower: 293 rampo score for the first, 296 rampo score for the second.

Going from KKLDTHFVKLSLFTER [SEQ ID NO 466] to KKLDAFFVKLSLFTER [SEQ ID NO 447], the “RAMPO Score” value rises from 332 rampo score to 346 rampo score.

Going from KELDTFFVKLSLFTER [SEQ ID NO 441] to KKLDTFFVKLSLFTKR [SEQ ID NO 471], the “RAMPO Score” value falls from 349 rampo score to 324 rampo score.

Going from KYLDTFFVKLSLFTER [SEQ ID NO 494] to KKLDTFFTKLSLFTER [SEQ ID NO 496], the “RAMPO Score” value falls from 301 rampo score to 298 rampo score.

Compared with WKLDTFFVKLSLFTER [SEQ ID NO 507], KKLDTFFAKLSLFTER [SEQ ID NO 495] is higher in “RAMPO Score” value: 284 rampo score for the first, 299 rampo score for the second.

Compared with KKLDTFFVKLPLFTER [SEQ ID NO 470], KKLDTFFVKLSPFTER [SEQ ID NO 497] is lower in “RAMPO Score” value: 328 rampo score for the first, 297 rampo score for the second.

Going from KKLDTFNVKLSLFTER [SEQ ID NO 443] to KKLRTFFVKLSLFTER [SEQ ID NO 480], the “RAMPO Score” value falls from 348 rampo score to 317 rampo score.

Going from KKLDTFYVKLSLFTER [SEQ ID NO 463] to KKLDTWFVKLSLFTER [SEQ ID NO 444], the “RAMPO Score” value rises from 334 rampo score to 348 rampo score.

First: FKLDTFFVKLSLFTER [SEQ ID NO 465]
Second: KKLDTFFVKLSLFQER [SEQ ID NO 493]
The “RAMPO Score” value of the first is higher: 332 rampo score for the first, 301 rampo score for the second.

Compared with KKLDEFFVKLSLFTER [SEQ ID NO 456], KKLDFFFVKLSLFTER [SEQ ID NO 504] is lower in “RAMPO Score” value: 341 rampo score for the first, 290 rampo score for the second.

Going from KDLDTFFVKLSLFTER [SEQ ID NO 461] to KWLDTFFVKLSLFTER [SEQ ID NO 490], the “RAMPO Score” value falls from 335 rampo score to 304 rampo score.

Compared with KTLDTFFVKLSLFTER [SEQ ID NO 468], KKLDTFFVKLALFTER [SEQ ID NO 477] is lower in “RAMPO Score” value: 331 rampo score for the first, 318 rampo score for the second.

Compared with KKLDTFFVQLSLFTER [SEQ ID NO 469], KKLDTFFVKKSLFTER [SEQ ID NO 506] is lower in “RAMPO Score” value: 330 rampo score for the first, 285 rampo score for the second.

Going from KKLDTRFVKLSLFTER [SEQ ID NO 486] to KKLDTFFVKLKLFTER [SEQ ID NO 473], the “RAMPO Score” value rises from 309 rampo score to 323 rampo score.

First: KKLDTFFVKWSLFTER [SEQ ID NO 482]
Second: KKLDTFDVKLSLFTER [SEQ ID NO 492]
The “RAMPO Score” value of the first is higher: 316 rampo score for the first, 301 rampo score for the second.

First: KKLDTCFVKLSLFTER [SEQ ID NO 462]
Second: KKLDTFFVKHSLFTER [SEQ ID NO 502]
The “RAMPO Score” value of the first is higher: 335 rampo score for the first, 293 rampo score for the second.

Going from KKLDTFFVKLSYFTER [SEQ ID NO 475] to KILDTFFVKLSLFTER [SEQ ID NO 467], the “RAMPO Score” value rises from 320 rampo score to 331 rampo score.

Compared with KVLDTFFVKLSLFTER [SEQ ID NO 481], KKLDTFFVKLSLYTER [SEQ ID NO 503] is lower in “RAMPO Score” value: 317 rampo score for the first, 291 rampo score for the second.

Going from KKWDTFFVKLSLFTER [SEQ ID NO 458] to KKLDTFFVKLRLFTER [SEQ ID NO 464], the “RAMPO Score” value falls from 341 rampo score to 333 rampo score.

Compared with KKLDTFFVHLSLFTER [SEQ ID NO 488], KKLDDFFVKLSLFTER [SEQ ID NO 500] is lower in “RAMPO Score” value: 306 rampo score for the first, 295 rampo score for the second.

First: KKLDLFFVKLSLFTER [SEQ ID NO 484]
Second: KKLDTFFVKLILFTER [SEQ ID NO 505]
The “RAMPO Score” value of the first is higher: 311 rampo score for the first, 289 rampo score for the second.

First: KKLDTFFVKLSCFTER [SEQ ID NO 455]
Second: KKLCTFFVKLSLFTER [SEQ ID NO 449]
The “RAMPO Score” value of the first is lower: 342 rampo score for the first, 344 rampo score for the second.

First: KKLDTFFVKLWLFTER [SEQ ID NO 472]
Second: KKLDTFFVKLCLFTER [SEQ ID NO 457]
The “RAMPO Score” value of the first is lower: 324 rampo score for the first, 341 rampo score for the second.

Compared with KCLDTFFVKLSLFTER [SEQ ID NO 499], KKLDTKFVKLSLFTER [SEQ ID NO 460] is higher in “RAMPO Score” value: 295 rampo score for the first, 337 rampo score for the second.

Going from KKLDTFFVKLSLFAER [SEQ ID NO 489] to KALDTFFVKLSLFTER [SEQ ID NO 485], the “RAMPO Score” value rises from 305 rampo score to 309 rampo score.

KKYDTFFVKLSLFTER [SEQ ID NO 452] and SKLDTFFVKLSLFTER [SEQ ID NO 453] are the same in “RAMPO Score” value: 344 rampo score for the first, 344 rampo score for the second.

Going from KKLDTFFVTLSLFTER [SEQ ID NO 445] to KKLQTFFVKLSLFTER [SEQ ID NO 448], the “RAMPO Score” value falls from 347 rampo score to 345 rampo score.

Going from KKLDTFFVKLSLFTHR [SEQ ID NO 478] to KKLDTGFVKLSLFTER [SEQ ID NO 446], the “RAMPO Score” value rises from 318 rampo score to 347 rampo score.

First: KKLDTFFVKLSLFTQR [SEQ ID NO 450]
Second: KLLDTFFVKLSLFTER [SEQ ID NO 454]
The “RAMPO Score” value of the first is higher: 344 rampo score for the first, 343 rampo score for the second.

Going from KKLHTFFVKLSLFTER [SEQ ID NO 479] to KKLDTFFVKLDLFTER [SEQ ID NO 474], the “RAMPO Score” value rises from 317 rampo score to 322 rampo score.

First: KKLSTFFVKLSLFTER [SEQ ID NO 451]
Second: KKLDTFFVKLSLFTYR [SEQ ID NO 459]
The “RAMPO Score” value of the first is higher: 344 rampo score for the first, 340 rampo score for the second.

With YKLDTFFVKLSLFTER [SEQ ID NO 483] the “RAMPO Score” value was 315 rampo score.
